Key:
[1] = system: P. aeruginosa (O6-57/66 strain); assay: Prophylactic mouse intraperitoneal infection model, survival; format: in vivo, BALB/c mice; conditions: 5 mg/kg antibody dose i.p. 24 h before infection; 3*LD90; 5 days
Procedure: The ability of the optimized anti-PcrV antibodies 7C1, 7B1 and 8C1 to improve survival in a mouse intraperitoneal infection model was evaluated in comparison to parental 13-42 mAb. HIV-10E8 was used as negative control. The mouse intraperitoneal infection model was generated as described previously (See Warrener et al., 2014, Antimicrob. Agents Chemother., 58, 4384-4391).
In a prophylactic model, 7-8 week old BALB/c mice (Vital River Laboratory) were administered antibodies by intraperitoneal (i.p.) injection 24 h before infection, at doses of 5 or 25 mg/kg mouse weight. To induce intraperitoneal infection, the BALB/c mice were intraperitoneally inoculated with P. aeruginosa (O6-57/66 strain) suspended in a 300 μl inoculum at triple the lethal dose (3*LD90=7×10^5 CFU). Mouse survival was recorded for up to 5 days post-infection.

BV particles = assay: Cross-reactivity to BV particles by ELISA; format: binding; conditions: FIG. 3
Procedure: Cross-reactivity to BV particles: Using ELISA, optimized antibodies 7C1, 7B1, 8C1, 6D10, and reference antibodies V2L2-MD and Mab166 were tested for cross-reactivity to BV particles according to the method described previously (See Hötzel I, et al, 2012, mAbs 4:6, 753-760).

mutated PcrV = assay: Epitope mapping: ELISA binding to alanine-scanning mutated PcrV; design: species or system P. aeruginosa
Procedure: Using the discovery studio software, the predicted binding sites on PcrV for 7B1 and the optimized antibodies were identified, and the amino acid residues within the binding sites and in proximity to the binding sites were selected and subjected to alanine scanning. Subsequently, PcrV proteins carrying these selected mutations were expressed. The binding affinity of 7B1-IgG1 for each mutated PcrV protein was analyzed using ELISA. FIGS. 14A-14D show the ELISA binding curves of the antibodies for mutated PcrV, where mutation positions were according to sequence of SEQ ID NO: 71. As used herein, PcrV represents a His-tagged wild-type P. aeruginosa PcrV (PcrV-6His). Mutations at various positions of the amino acid sequence of the wild type PcrV were generated using alanine scanning as described above.

[2] = system: P. aeruginosa strains O1-52/66, O16-177/81, and O6-57/66; assay: RBC lysis inhibition assay, various strains (average); format: cell-based, Pseudomonas aeruginosa; conditions: FIGS. 5A-5C
Procedure: Monoclonal scFv antibodies were selected and assessed for biological activity by RBC lysis assay. Briefly, red blood cells (RBCs) were prepared from fresh whole human or rabbit blood by centrifugation, supplemented with EDTA and rinsed with multiple phosphate-buffered saline (PBS) washes. Washed RBCs (2.5% [vol/vol] final) in Dulbecco's modified Eagle's medium (DMEM) plus 10% fetal bovine serum (FBS) (Gibco) and purified anti-PcrV antibodies diluted in PBS were combined into wells of a round-bottom 96-well plate. Strain 57/66(O6) P. aeruginosa was grown to mid-log phase in 2× YT medium (Oxford), harvested by centrifugation, and resuspended in DMEM-fetal bovine serum (FBS) at an optical density at 600 nm (OD600) of 0.15. Ten microliters of bacterial suspension was added to the RBC-antibody mixture, mixed by agitation, and incubated for 3 hours at 37° C. and 5% CO2. The plates were briefly centrifuged (1000 rpm, 1 min) to pellet the intact RBCs, the supernatants transferred to a flat-bottom 96-well plate, and the OD405 was measured to detect any lysis, from which the relative amount of lysis inhibition was calculated and plotted. IC50 values for the antibodies were also determined.
The optimized anti-PcrV mAb clones 7C1, 8C1, and 7B1 were further analyzed for their abilities to inhibit red blood cell lysis by various strains of P. aeruginosa, namely strains O1-52/66, O16-177/81, and O6-57/66, as compared to the parental 13-42 mAb and the reference antibody V2L2-MD. RBC lysis inhibition assay was performed as described in Example 1.

[3] = rat, in vivo, iv
Procedure: Pharmacokinetic profile in rat: 40 healthy adult rats (about 0.2 kg by weight) were equally into two groups, where each group registered similar average weight. One group was injected intravenously with 30 mg/kg of V2L2-MD, 7C1, 7B1, 8C1 or 6D10 and the other group was injected intravenously with 3 mg/kg of V2L2-MD, 7C1, 7B1, 8C1 or 6D10. Blood was collected at […], and subsequently at 0 hour, 0.5 hour, 2 hour, 8 hour, 1 day, 3 days, 7 days, 11 days, 17 days, 23 days, 31 days, 41 days and 52 days after injection. After centrifugation, the plasma was used for analyzing antibody concentration using ELISA. For the ELISA experiment, synthetic PcrV was used to coat the wells of a 96-well plate. On the following day, after washing with PBST, blocking with 200 μL PBS-milk for an hour, and another wash with PBST, the plasma was added and incubated for an hour at 37° C. The plate was washed with 0.1% TBST for 6 times before 100 μL of Goat-anti-human Fc antibody-AP (1:3000 in PBS) was added to each well and incubated for an hour. After washing with 0.1% TBST for 6 times, 50 μL of pNPP was added to each well and color was developed for 10-20 minutes at 37° C. The signals were read by a microplate reader at 410 nm.

[4] = system: P. aeruginosa (PA103 strain); assay: Prophylactic mouse acute pneumonia model, survival; format: in vivo, BALB/c mice; conditions: i.p. 24 h before infection, 1 or 10 mg/kg; 1*LD90 or 2*LD90; 7 days
Procedure: The candidate anti-PcrV antibodies were assayed for the ability to improve survival in a mouse acute pneumonia model. In a prophylactic model, 7-8 week old BALB/c mice (Vital River Laboratory) were administered the candidate antibodies or PBS intraperitoneally (i.p.) 24 hr before infection, at doses of 1, 5, 10 or 25 mg/kg mouse weight. […] Mouse survival was recorded for up to 7 days post-infection.
In a prophylactic model, 7-8 week old BALB/c mice (Vital River Laboratory) were administered with antibodies intraperitoneally (i.p.) 24 h before infection, at doses of 1 or 10 mg/kg mouse weight. […] Mouse survival was recorded for up to 7 days post-infection. The results were represented as Kaplan-Meier survival curves.

Molecule	survival improvement relative to parental 13-42 mAb [1]	non-specific binding to BV particles (BV particles)	effect of PcrV mutation at position D165 on binding (mutated PcrV; FIG. 14C)	effect of PcrV mutation at position Q160 on binding (mutated PcrV; FIG. 14C)	effect of PcrV mutation at position D170 on binding (mutated PcrV; FIG. 14D)	effect of PcrV mutation at position D173 on binding (mutated PcrV; FIG. 14D)	effect of PcrV mutation at position S202 on binding (mutated PcrV; FIG. 14D)	effect of PcrV mutation at position T175 on binding (mutated PcrV; FIG. 14D)	efficacy in inhibiting RBC lysis by strains O1-52/66, O16-177/81, O6-57/66 relative to V2L2-MD or parental 13-42 mAb [2]	half-lives relative to reference antibody V2L2-MD [3]	survival improvement relative to parental 13-42 mAb [4]
7B1: optimized anti-PcrV mAb clone; VH SEQ ID NO: 62, VL SEQ ID NO: 67 (antibody, V domains shown) VH: EVQLLESGGGLVQPGGSLRLSCTASGFTFSDNYMSWVRQAPGKGLDWVSVISESGGSTNYADSVKGRFSTSRDNSKSTLYLDMNSLRAEDTAIYYCAKGRFSTLSSHFFRAVYGMDVWGQGTAVTVSS VL: DIQLTQSPSSLSASVGDRVTITCRASQGISSYLAWYQQKPGKAPKLLIYAASTLQSGVPSRFSGSGSGTDFTLTISSLQPEDFATYYCQQLSSYPLTFGGGTKVEIK	comparable or better survival improvement	low levels of non-specific binding	affected binding	significantly affected binding	affected binding	affected binding	affected binding	affected binding	better efficacy in inhibiting RBC lysis	comparable to or longer than that of reference antibody V2L2-MD	comparable or better survival improvements
7C1: optimized anti-PcrV mAb clone; VH SEQ ID NO: 52, VL SEQ ID NO: 65 (antibody, V domains shown) VH: EVQLLESGGGLVQPGGSLRLSCTASGFTFSDNHMSWVRQAPGKGLDWVSGISESGGSTNYADSVKGRFSTSRDNSKSTLYLDMNSLRAEDTAIYYCAKGRFSTSSSHFYRAVYGMDVWGQGTAVTVSS VL: DIQLTQSPSSLSASVGDRVTITCRASQGISSYLAWYQQKPGKAPKLLIYAASTLQSGVPSRFSGSGSGTDFTLTISSLQPEDFATYYCQQLSSYPLSFGGGTKVEIK	comparable or better survival improvement	low levels of non-specific binding	–	–	–	–	–	–	better efficacy in inhibiting RBC lysis	comparable to or longer than that of reference antibody V2L2-MD	comparable or better survival improvements
8C1: optimized anti-PcrV mAb clone; VH SEQ ID NO: 51, VL SEQ ID NO: 67 (antibody, V domains shown) VH: EVQLLESGGGLVQPGGSLRLSCTASGFTFSDNHMSWVRQAPGKGLDWVSGISESGGSTNYADSVKGRFSTSRDNSKSTLYLDMNSLRAEDTAIYYCAKGRFSTNSAHFFRAVYGMDVWGQGTAVTVSS VL: DIQLTQSPSSLSASVGDRVTITCRASQGISSYLAWYQQKPGKAPKLLIYAASTLQSGVPSRFSGSGSGTDFTLTISSLQPEDFATYYCQQLSSYPLTFGGGTKVEIK	–	low levels of non-specific binding	–	–	–	–	–	–	better efficacy in inhibiting RBC lysis	comparable to or longer than that of reference antibody V2L2-MD	–
